Results published in PMC9479004, “Cloning and characterization of a novel functional organic anion transporting polypeptide 3A1 isoform highly expressed in the human brain and testis” (Frontiers in Pharmacology, 2022).

B1: OATP3A1_V2 (Homo sapiens; E294D) (protein)
chain: MQGKKPGGSSGGGRSGELQGDEAQRNKKKKKKVSCFSNIKIFLVSECALMLAQGTVGAYLVSVLTTLERRFNLQSADVGVIASSFEIGNLALILFVSYFGARGHRPRLIGCGGIVMALGALLSALPEFLTHQYKYEAGEIRWGAEGRDVCAANGSGGDEGPDPDLICRNRTATNMMYLLLIGAQVLLGIGATPVQPLGVSYIDDHVRRKDSSLYIGILFTMLVFGPACGFILGSFCTKIYVDAVFIDTSNLDITPDDPRWIGAWWGGFLLCGALLFFSSLLMFGFPQSLPPHSDPAMESEQAMLSEREYERPKPSNGVLRHPLEPDSSASCFQQLRVIPKVTKHLLSNPVFTCIILAACMEIAVVAGFAAFLGKYLEQQFNLTTSSANQLLGMTAIPCACLGIFLGGLLVKKLSLSALGAIRMAMLVNLVSTACYVSFLFLGCDTGPVAGVTVPYGNSTAPGSALDPYSPCNNNCECQTDSFTPVCGADGITYLSACFAGCNSTNLTGCACLTTVPAENATVVPGKCPSPGCQEAFLTFLCVMCICSLIGAMAQTPSVIILIRTVSPELKSYALGVLFLLLRLLGFIPPPLIFGAGIDSTCLFWSTFCGEQGACVLYDNVVYRYLYVSIAIALKSFAFILYTTTWQCLRKNYKRYIKNHEGGLSTSTEYQDIETEKTCPESHSPSEDSFVRS
notes: full-length ORF from brain RNA, 692 residues, E294D polymorphism (rs1517618), untagged, lentiviral overexpression in HEK-293
B2: OATP3A1_V3 (Homo sapiens; E294D) (protein)
chain: MQGKKPGGSSGGGRSGELQGDEAQRNKKKKKKVSCFSNIKIFLVSECALMLAQGTVGAYLVSVLTTLERRFNLQSADVGVIASSFEIGNLALILFVSYFGARGHRPRLIGCGGIVMALGALLSALPEFLTHQYKYEAGEIRWGAEGRDVCAANGSGGDEGPDPDLICRNRTATNMMYLLLIGAQVLLGIGATPVQPLGVSYIDDHVRRKDSSLYIGILFTMLVFGPACGFILGSFCTKIYVDAVFIDTSNLDITPDDPRWIGAWWGGFLLCGALLFFSSLLMFGFPQSLPPHSDPAMESEQAMLSEREYERPKPSNGVLRHPLEPDSSASCFQQLRVIPKVTKHLLSNPVFTCIILAACMEIAVVAGFAAFLGKYLEQQFNLTTSSANQLLGMTAIPCACLGIFLGGLLVKKLSLSALGAIRMAMLVNLVSTACYVSFLFLGCDTGPVAGVTVPYGNSTAPGSALDPYSPCNNNCECQTDSFTPVCGADGITYLSACFAGCNSTNLTGCACLTTVPAENATVVPGKCPSPGCQEAFLTFLCVMCICSLIGAMAQTPSVIILIRTVSPELKSYALGVLFLLLRLLGFIPPPLIFGAGIDSTCLFWSTFCGEQGACVLYDNVVYRYLYVSIAIALKSFAFILYTTTWQCLRKNYKRYIKNHEGGLSTTSEPDRIQNKERMTSCGRVLEATCAAGPQSLL
notes: full-length ORF from brain RNA, 697 residues, E294D polymorphism (rs1517618), untagged, lentiviral overexpression in HEK-293; C-terminal peptide (C)VLEATCAAGPQSLL
B3: OATP3A1_V1 (Homo sapiens; E294D) (protein)
chain: MQGKKPGGSSGGGRSGELQGDEAQRNKKKKKKVSCFSNIKIFLVSECALMLAQGTVGAYLVSVLTTLERRFNLQSADVGVIASSFEIGNLALILFVSYFGARGHRPRLIGCGGIVMALGALLSALPEFLTHQYKYEAGEIRWGAEGRDVCAANGSGGDEGPDPDLICRNRTATNMMYLLLIGAQVLLGIGATPVQPLGVSYIDDHVRRKDSSLYIGILFTMLVFGPACGFILGSFCTKIYVDAVFIDTSNLDITPDDPRWIGAWWGGFLLCGALLFFSSLLMFGFPQSLPPHSDPAMESEQAMLSEREYERPKPSNGVLRHPLEPDSSASCFQQLRVIPKVTKHLLSNPVFTCIILAACMEIAVVAGFAAFLGKYLEQQFNLTTSSANQLLGMTAIPCACLGIFLGGLLVKKLSLSALGAIRMAMLVNLVSTACYVSFLFLGCDTGPVAGVTVPYGNSTAPGSALDPYSPCNNNCECQTDSFTPVCGADGITYLSACFAGCNSTNLTGCACLTTVPAENATVVPGKCPSPGCQEAFLTFLCVMCICSLIGAMAQTPSVIILIRTVSPELKSYALGVLFLLLRLLGFIPPPLIFGAGIDSTCLFWSTFCGEQGACVLYDNVVYRYLYVSIAIALKSFAFILYTTTWQCLRKNYKRYIKNHEGGLSTSEFFASTLTLDNLGRDPVPANQTHRTKFIYNLEDHEWCENMESVL
notes: full-length ORF from brain RNA, 710 residues, E294D polymorphism (rs1517618), untagged, lentiviral overexpression in HEK-293

What follows are proteins tested on CCN(CC)c1ccc2cc(/C=C/c3cc[n+](CCCN=[N+]=[N-])cc3S(=O)(=O)[O-])c(=O)oc2c1 (assay: fluorescent dye uptake by flow cytometry, HEK-293 overexpressing cells). Conditions: pH 7.4, 37 °C, 10 min, 5-400 µM ACPS, mock-subtracted.
Type: cell-based, Homo sapiens

Q: With B1 as the protein, how does the Km read?
A: 31.7 µM

Q: Which Km does the source give for B2 here?
A: 35 µM

Q: Which Km does the source give for B3 here?
A: 37.7 µM
